# Laboratory results: patent publication US7588931B2, “High arachidonic acid producing strains of Yarrowia lipolytica” (E. I. du Pont de Nemours and Company, priority 2004, dated 2009)
# Entries after “also recorded” stand apart in the source; their conditions may differ.
# Columns and labels:
# Format in all cases: cell-based, Yarrowia lipolytica
# [1] = tested on: β-glucuronidase (GUS) reporter; test: Comparative analysis of promoters by histochemical analysis of GUS expression
# Protocol: Comparative studies investigating the promoter activities of the TEF, GPD, GPDIN, GPM, GPAT, FBA, FBAIN and YAT1 promoters were performed, by synthesizing constructs comprising each promoter and the E. coli gene encoding β-glucuronidase (GUS) as a reporter gene (Jefferson, R. A. Nature. 14(342):837-838 (1989)). Then, GUS activity was measured by histochemical and fluorometric assays (Jefferson, R. A. Plant Mol. Biol. Reporter 5:387-405 (1987)) and/or by using Real Time PCR for mRNA quantitation.
# Yarrowia lipolytica ATCC #76982 strains containing plasmids pY5-30, pYZGDG, pYZGMG, pDMW212 and pDMW214 were grown from single colonies in 3 mL MM at 30° C. to an OD600˜1.0. Then, 100 μl of cells were collected by centrifugation, resuspended in 100 μl of histochemical staining buffer, and incubated at 30° C. Staining buffer was prepared by dissolving 5 mg of 5-bromo-4-chloro-3-indolyl glucuronide (X-Gluc) in 50 μl dimethyl formamide, followed by the addition of 5 mL 50 mM NaPO4, pH 7.0.
# In a separate experiment, Y. lipolytica Y2034 strains containing plasmids pY5-30, pYGPAT-GUS, pYAT-GUS and pDMW214 were grown from single colonies in 5 mL SD media at 30° C. for 24 hrs to an OD600˜8.0. Then, 1 mL of cells were collected by centrifugation. The remaining cultures were centrifuged and washed 2× with HGM, resuspended in 5 mL each of HGM and allowed to grow at 30° C. further. After 24 and 120 hrs, ˜0.25 mL of each culture were centrifuged to collect the cells. Cell samples were resuspended individually in 100 μl of histochemical staining buffer (supra). Zymolase 20T (5 μl of 1 mg/mL; ICN Biomedicals, Costa Mesa, Calif.) was added to each, and the mixture incubated at 30° C. […]
# [2] = tested on: β-glucuronidase (GUS) reporter; test: Comparative analysis of promoters by fluorometric assay of GUS expression
# Protocol: GUS activity was also assayed by fluorometric determination of the production of 4-methylumbelliferone (4-MU) from the corresponding substrate β-glucuronide (Jefferson, R. A. Plant Mol. Biol. Reporter 5:387-405 (1987)).
# Yarrowia lipolytica ATCC #76982 strains containing plasmids pY5-30, PYZGDG, PYZGMG, pDMW212 and pDMW214 were grown from single colonies in 3 mL MM (as described above) at 30° C. to an OD600˜1.0. Then, the 3 mL cultures were each added to a 500 mL flask containing 50 mL MM and grown in a shaking incubator at 30° C. for about 24 hrs. The cells were collected by centrifugation, resuspended in Promega Cell Lysis Buffer and lysed using the BIO 101 Biopulverizer system (Vista, Calif.). After centrifugation, the supernatants were removed and kept on ice.
# Similarly, Y. lipolytica strain Y2034 containing plasmids pY5-30, pYAT-GUS, pYGPAT-GUS and pDMW214 constructs, respectively, were grown from single colonies in 10 mL SD medium at 30° C. for 48 hrs to an OD600˜5.0. Two mL of each culture was collected for GUS activity assays, as described below, while 5 mL of each culture was switched into HGM.
# Specifically, cells from the 5 mL aliquot were collected by centrifugation, washed once with 5 mL of HGM and resuspended in HGM. The cultures in HGM were then grown in a shaking incubator at 30° C. for 24 hrs. Two mL of each HGM culture were collected for the GUS activity assay, while the remaining culture was allowed to grow for an additional 96 hrs before collecting an additional 2 mL of each culture for the assay.
# Each 2 mL culture sample in SD medium was resuspended in 1 mL of 0.5× cell culture lysis reagent (Promega). Resuspended cells were mixed with 0.6 mL of glass beads (0.5 mm diameter) in a 2.0 mL screw cap tube with a rubber O-ring. The cells were then homogenized in a Biospec mini beadbeater (Bartlesville, Okla.) at the highest setting for 90 sec. The homogenization mixtures were centrifuged for 2 min at 14,000 rpm in an Eppendof centrifuge to remove cell debris and beads. The supernatant was used for GUS assay and protein determination.
# For each fluorometric assay, 100 μl of extract was added to […] of GUS assay buffer (2 mM 4-methylumbelliferyl-β-D-glucuronide (“MUG”) in extraction buffer) or 200 μl of extract was added to 800 μl of GUS assay buffer. The mixtures were placed at 37° C. Aliquots of 100 μl were taken at 0, 30 and 60 min time points and added to 900 μl of stop buffer (1 M Na2CO3). Each time point was read using a CytoFluor Series 4000 Fluorescence Multi-Well Plate Reader (PerSeptive Biosystems, Framingham, Mass.) set to an excitation wavelength of 360 nm and an emission wavelength of 455 nm. Total protein concentration of each sample was determined using 10 μl of extract and 200 μl of BioRad Bradford reagent or 20 μl of extract and 980 μl of BioRad Bradford reagent (Bradford, M. M. Anal. Biochem. 72:248-254 (1976)). GUS activity was expressed as nmoles of 4-MU per minute per mg of protein.
# [3] = tested on: β-glucuronidase (GUS) reporter; test: Relative promoter activity rank from comparative GUS reporter studies (histochemical, fluorometric and/or Real Time PCR); set-up: key: a ‘1’ corresponds to the promoter with lowest activity; a ‘7’ corresponds to the promoter with highest activity; conditions: relative to other promoters
# Protocol: The activity of GPM is about the same as TEF, while the activity of GPD, FBA, FBAIN, FBAINm, GPDIN, GPAT, YAT1 and EXP1 are all greater than TEF (activity is quantified in a relative manner in the column titled “Activity Rank”, wherein a ‘1’ corresponds to the promoter with lowest activity, while a ‘7’ corresponds to the promoter with highest activity). […] GUS activity in each expressed construct was measured by histochemical and/or fluorometric assays (Jefferson, R. A. Plant Mol. Biol. Reporter 5:387-405 (1987)) and/or by use of Real Time PCR.
# [4] = ATCC #76982 strains, MM, FIG. 5B
Molecule,"promoter activity by histochemical staining [1, 4]","GUS activity ([2]; strain Y2034, 24 hr, HGM)","GUS activity ([2]; strain Y2034, 48 hr, SD)","GUS activity ([2]; strain Y2034, 120 hr HGM)",increase of promoter activity ([2]; switched from SD medium into HGM and grown for 24 hrs),Activity “Rank” [3],"promoter activity by histochemical staining ([1]; strain Y2034, 24 hr in SD medium, FIG. 5C)",reduction of promoter activity ([2]; switched from SD medium into HGM for 24 hrs)
"TEF: Y. lipolytica translation elongation factor EF1-α promoter, SEQ ID NO:166 (nucleic acid, listed as Yarrowia lipolytica, misc_feature: Promoter TEF) DNA: GACCGGGTTGGCGGCGTATTTGTGTCCCAAAAAACAGCCCCAATTGCCCCAATTGACCCCAAATTGACCCAGTAGCGGGCCCAACCCCGGCGAGAGCCCCCTTCACCCCACATATCAAACCTCCCCCGGTTCCCACACTTGCCGTTAAGGGCGTAGGGTACTGCAGTCTGGAATCTACGCTTGTTCAGACTTTGTACTAGTTTCTTTGTCTGGCCATCCGGGTAACCCATGCCGGACGCAAAATAGACTACTGAAAATTTTTTTGCTTTGTGGTTGGGACTTTAGCCAAGGGTATAAAAGACCACCGTCCCCGAATTACCTTTCCTCTTCTTTTCTCTCTCTCCTTGTCAACTCACACCCGAAATCGTTAAGCATTTCCTTCTGAGTATAAGAATCATTCAAAGGATCCACTAGTTCTAGAGCGGCCGCTTAAACC",active,0.942 nmoles of 4-MU per minute per mg of protein,0.401 nmoles of 4-MU per minute per mg of protein,0.466 nmoles of 4-MU per minute per mg of protein,2.3 fold,1,,
"GPAT: Y. lipolytica glycerol-3-phosphate acyltransferase promoter, SEQ ID NO:164 (nucleic acid, listed as Yarrowia lipolytica, misc_feature: Promoter GPAT) DNA: CAACTTTTCTTGTCGACCTGAGATACCGAGGTTGCGCAGGGGATCAACTTTTGTGTCTCAGAGGGACCCAAGTGCGTACGGAGAGTACAGTACATACTGTAGCTAACGGTAGCAGGCGAACTACTGGTACATACCTCCCCCGGAATATGTACAGGCATAATGCGTATCTGTGGGACATGTGGTCGTTGCGCCATTATGTAAGCAGCGTGTACTCCTCTGACTGTCCATATGGTTTGCTCCATCTCACCCTCATCGTTTTCATTGTTCACAGGCGGCCACAAAAAAACTGTCTTCTCTCCTTCTCTCTTCGCCTTAGTCTACTCGGACCAGTTTTAGTTTAGCTTGGCGCCACTGGATAAATGAGACCTCAGGCCTTGTGATGAGGAGGTCACTTATGAAGCATGTTAGGAGGTGCTTGTATGGATAGAGAAGCACCCAAAATAATAAGAATAATAATAAAACAGGGGGCGTTGTCATTTCATATCGTGTTTTCACCATCAATACACCTCCAAACAATGCCCTTCATGTGGCCAGCCCCAATATTGTCCTGTAGTTCAACTCTATGCAGCTCGTATCTTATTGAGCAAGTAAAACTCTGTCAGCCGATATTGCCCGACCCGCGACAAGGGTCAACAAGGTGGTGTAAGGCCTTCGCAGAAGTCAAAACTGTGCCAAACAAACATCTAGAGTCTCTTTGGTGTTTCTCGCATATATTTAATCGGCTGTCTTACGTATTTGGCCTCGGTACCGGACTAATTTCGGATCATCCCCAATACGCTTTTTCTTCGCAGCTGTCAACAGTGTCCATGATCTATCCACCTAAATGGGTCATATGAGGCGTATAATTTCGTGGTGCTGATAATAATTCCCATATATTTGACACAAAACTTCCCCCCCTAGACATACATCTCACAATCTCACTTCTTGTGCTTCTGTCACACATCTCCTCCAGCTGACTTCAACTCACACCTCTGCCCCAGTTGGTCTACAGCGGTATAAGGTTTCTCCGCATAGAGGTGCACCACTCCTCCCGATACTTGTTTGTGTGACTTGTGGGTCACGACATATATATCTACACACATTGCGCCACCCTTTGGTTCTTCCAGCACAACAAAAACACGACACGCTAA",,2.969 nmoles of 4-MU per minute per mg of protein,5.252 nmoles of 4-MU per minute per mg of protein,3.050 nmoles of 4-MU per minute per mg of protein,,5,active; also recorded: much stronger than the TEF promoter,40%
"GPM: Y. lipolytica phosphoglycerate mutase promoter, SEQ ID NO:160 (nucleic acid, listed as Yarrowia lipolytica, misc_feature: Promoter GPM) DNA: GCCTCTGAATACTTTCAACAAGTTACACCCTTCATTAATTCTCACGTGACACAGATTATTAACGTCTCGTACCAACCACAGATTACGACCCATTCGCAGTCACAGTTCACTAGGGTTTGGGTTGCATCCGTTGAGAGCGGTTTGTTTTTAACCTTCTCCATGTGCTCACTCAGGTTTTGGGTTCAGATCAAATCAAGGCGTGAACCACTTTGTTTGAGGACAAATGTGACACAACCAACCAGTGTCAGGGGCAAGTCCGTGACAAAGGGGAAGATACAATGCAATTACTGACAGTTACAGACTGCCTCGATGCCCTAACCTTGCCCCAAAATAAGACAACTGTCCTCGTTTAAGCGCAACCCTATTCAGCGTCACGTCATAATAGCGTTTGGATAGCACTAGTCTATGAGGAGCGTTTTATGTTGCGGTGAGGGCGATTGGTGCTCATATGGGTTCAATTGAGGTGGCGGAACGAGCTTAGTCTTCAATTGAGGTGCGAGCGACACAATTGGGTGTCACGTGGCCTAATTGACCTCGGGTCGTGGAGTCCCCAGTTATACAGCAACCACGAGGTGCATGGGTAGGAGACGTCACCAGACAATAGGGTTTTTTTTGGACTGGAGAGGGTTGGGCAAAAGCGCTCAACGGGCTGTTTGGGGAGCTGTGGGGGAGGAATTGGCGATATTTGTGAGGTTAACGGCTCCGATTTGCGTGTTTTGTCGCTCCTGCATCTCCCCATACCCATATCTTCCCTCCCCACCTCTTTCCACGATAATTTTACGGATCAGCAATAAGGTTCCTTCTCCTAGTTTCCACGTCCATATATATCTATGCTGCGTCGTCCTTTTCGTGACATCACCAAAACACATACAAAAATG",active,,,,,1,,
